# Measurements: article PMC10786891, “Massively parallel profiling of RNA-targeting CRISPR-Cas13d”
# Positions count from the first letter of the chain named.
# T1: EsCas13d, nuclease-dead (Eubacterium siraeum, UniProt B0MS50, R295A;H300A;R849A;H854A)
# T1 sequence: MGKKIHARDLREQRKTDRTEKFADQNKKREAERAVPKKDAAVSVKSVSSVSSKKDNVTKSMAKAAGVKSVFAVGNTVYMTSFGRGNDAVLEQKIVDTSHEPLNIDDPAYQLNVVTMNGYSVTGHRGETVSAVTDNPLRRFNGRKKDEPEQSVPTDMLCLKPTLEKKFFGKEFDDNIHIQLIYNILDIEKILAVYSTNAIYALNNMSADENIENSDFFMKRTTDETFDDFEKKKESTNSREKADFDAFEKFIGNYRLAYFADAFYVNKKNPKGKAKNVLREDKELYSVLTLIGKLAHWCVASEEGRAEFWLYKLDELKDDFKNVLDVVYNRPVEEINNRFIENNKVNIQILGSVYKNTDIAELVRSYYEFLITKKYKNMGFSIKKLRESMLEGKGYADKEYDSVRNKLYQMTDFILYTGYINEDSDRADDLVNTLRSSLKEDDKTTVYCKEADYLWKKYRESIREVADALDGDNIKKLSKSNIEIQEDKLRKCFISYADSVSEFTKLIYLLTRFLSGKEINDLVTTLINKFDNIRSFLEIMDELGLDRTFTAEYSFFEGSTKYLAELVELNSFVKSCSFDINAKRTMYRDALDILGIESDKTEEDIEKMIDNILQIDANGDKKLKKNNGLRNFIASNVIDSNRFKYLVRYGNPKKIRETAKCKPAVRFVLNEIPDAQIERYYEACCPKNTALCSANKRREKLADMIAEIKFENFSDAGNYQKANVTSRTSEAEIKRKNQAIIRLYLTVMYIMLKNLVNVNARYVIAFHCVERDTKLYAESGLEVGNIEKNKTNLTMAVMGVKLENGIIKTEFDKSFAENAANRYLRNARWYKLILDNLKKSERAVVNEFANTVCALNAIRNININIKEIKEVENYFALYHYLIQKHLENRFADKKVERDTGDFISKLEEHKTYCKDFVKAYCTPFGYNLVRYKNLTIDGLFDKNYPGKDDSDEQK
# B1: target 1 complement block 6-8 (mixed)
# RNA 1: CACCCGUGCAAAAAUGCAGGGGUCUAAAACUGAGCGGAUAACCUCUCUAUGG
# RNA 2: GGGAAUGGAUCCACAUCUACGAAUUCGUACCAUAGAGAGGUUAAGGGCUCACCGAGAUCGGAAGAGCACACGU
# B2: target 1 insU 3' of 21,insG 3' of 14 (mixed)
# RNA 1: B1 RNA 1
# RNA 2: GGGAAUGGAUCCACAUCUACGAAUUCGUACCUAUAGAGAGGGUUAUCCGCUCACCGAGAUCGGAAGAGCACACGU
# B3: target 1 insA 3' of 8,insG 3' of 6 (mixed)
# RNA 1: B1 RNA 1
# RNA 2: GGGAAUGGAUCCACAUCUACGAAUUCGUACCAUAGAGAGGUUAUACCGGCUCACCGAGAUCGGAAGAGCACACGU
# B4: target 2 MT 5'PFS UCA 3'PFS ACC (mixed)
# RNA 1: CACCCGUGCAAAAUUGCAGGGGUCUAAAACCUUCUCCAAAUUGUUUCAUCCU
# RNA 2: GGGAAUGGAUCCACAUCUACGAAUUCUCAAGGAUGAAACAAUUUGGAGAAGACCAGAUCGGAAGAGCACACGU
# B5: target 2 MT 5'PFS UCU 3'PFS AAC (mixed)
# RNA 1: B4 RNA 1
# RNA 2: B4 RNA 2 with A29U, C53A
# B6: target 2 MT 5'PFS AAU 3'PFS UCG (mixed)
# RNA 1: B4 RNA 1
# RNA 2: B4 RNA 2 with U27A, C28A, A29U, A52U, C54G
# B7: target 2 MT 5'PFS CGG 3'PFS CGA (mixed)
# RNA 1: B4 RNA 1
# RNA 2: B4 RNA 2 with U27C, C28G, A29G, A52C, C53G, C54A
# B8: target 2 MT 5'PFS CGG 3'PFS AAC (mixed)
# RNA 1: B4 RNA 1
# RNA 2: B4 RNA 2 with U27C, C28G, A29G, C53A
# B9: target 2 MT 5'PFS CGG 3'PFS CGC (mixed)
# RNA 1: B4 RNA 1
# RNA 2: B4 RNA 2 with U27C, C28G, A29G, A52C, C53G
# B10: target 2 MT 5'PFS UAG 3'PFS CAG (mixed)
# RNA 1: B4 RNA 1
# RNA 2: B4 RNA 2 with C28A, A29G, A52C, C53A, C54G
# B11: target 2 MT 5'PFS CGG 3'PFS AAG (mixed)
# RNA 1: B4 RNA 1
# RNA 2: B4 RNA 2 with U27C, C28G, A29G, C53A, C54G
# B12: target 2 MT 5'PFS GCG 3'PFS CUA (mixed)
# RNA 1: B4 RNA 1
# RNA 2: B4 RNA 2 with U27G, A29G, A52C, C53U, C54A
# B13: target 2 MT 5'PFS CGG 3'PFS AAU (mixed)
# RNA 1: B4 RNA 1
# RNA 2: B4 RNA 2 with U27C, C28G, A29G, C53A, C54U
# B14: target 2 MT 5'PFS AAC 3'PFS UUU (mixed)
# RNA 1: B4 RNA 1
# RNA 2: B4 RNA 2 with U27A, C28A, A29C, A52U, C53U, C54U
# B15: target 2 MT 5'PFS UUU 3'PFS CGA (mixed)
# RNA 1: B4 RNA 1
# RNA 2: B4 RNA 2 with C28U, A29U, A52C, C53G, C54A
# B16: target 2 MT 5'PFS UUA 3'PFS GCC (mixed)
# RNA 1: B4 RNA 1
# RNA 2: B4 RNA 2 with C28U, A52G
# B17: target 2 MT 5'PFS UCU 3'PFS AAG (mixed)
# RNA 1: B4 RNA 1
# RNA 2: B4 RNA 2 with A29U, C53A, C54G
# B18: target 2 MT 5'PFS UUA 3'PFS GCA (mixed)
# RNA 1: B4 RNA 1
# RNA 2: B4 RNA 2 with C28U, A52G, C54A
# B19: target 2 MT 5'PFS UGU 3'PFS UCG (mixed)
# RNA 1: B4 RNA 1
# RNA 2: B4 RNA 2 with C28G, A29U, A52U, C54G
# B20: target 2 MT 5'PFS UUU 3'PFS CGC (mixed)
# RNA 1: B4 RNA 1
# RNA 2: B4 RNA 2 with C28U, A29U, A52C, C53G
# B21: target 2 MT 5'PFS UCU 3'PFS AAU (mixed)
# RNA 1: B4 RNA 1
# RNA 2: B4 RNA 2 with A29U, C53A, C54U
# B22: target 2 MT 5'PFS CAU 3'PFS CGA (mixed)
# RNA 1: B4 RNA 1
# RNA 2: B4 RNA 2 with U27C, C28A, A29U, A52C, C53G, C54A
# B23: target 2 MT 5'PFS CUU 3'PFS CUA (mixed)
# RNA 1: B4 RNA 1
# RNA 2: B4 RNA 2 with U27C, C28U, A29U, A52C, C53U, C54A
# B24: target 2 MT 5'PFS CGC 3'PFS UGC (mixed)
# RNA 1: B4 RNA 1
# RNA 2: B4 RNA 2 with U27C, C28G, A29C, A52U, C53G
# B25: target 2 MT 5'PFS CUU 3'PFS CUC (mixed)
# RNA 1: B4 RNA 1
# RNA 2: B4 RNA 2 with U27C, C28U, A29U, A52C, C53U
# B26: target 2 MT 5'PFS UAG 3'PFS CAU (mixed)
# RNA 1: B4 RNA 1
# RNA 2: B4 RNA 2 with C28A, A29G, A52C, C53A, C54U
# B27: target 2 MT 5'PFS UCU 3'PFS AAA (mixed)
# RNA 1: B4 RNA 1
# RNA 2: B4 RNA 2 with A29U, C53A, C54A
# B28: target 2 MT 5'PFS UCA 3'PFS ACU (mixed)
# RNA 1: B4 RNA 1
# RNA 2: B4 RNA 2 with C54U
# B29: target 2 MT 5'PFS AAC 3'PFS UUA (mixed)
# RNA 1: B4 RNA 1
# RNA 2: B4 RNA 2 with U27A, C28A, A29C, A52U, C53U, C54A
# B30: target 2 MT 5'PFS CGG 3'PFS AAA (mixed)
# RNA 1: B4 RNA 1
# RNA 2: B4 RNA 2 with U27C, C28G, A29G, C53A, C54A
# B31: target 2 MT 5'PFS CAU 3'PFS CGG (mixed)
# RNA 1: B4 RNA 1
# RNA 2: B4 RNA 2 with U27C, C28A, A29U, A52C, C53G, C54G
# B32: target 2 MT 5'PFS UAG 3'PFS CAA (mixed)
# RNA 1: B4 RNA 1
# RNA 2: B4 RNA 2 with C28A, A29G, A52C, C53A, C54A
# B33: target 2 MT 5'PFS CAC 3'PFS UUU (mixed)
# RNA 1: B4 RNA 1
# RNA 2: B4 RNA 2 with U27C, C28A, A29C, A52U, C53U, C54U
# B34: target 2 MT 5'PFS CUU 3'PFS CUU (mixed)
# RNA 1: B4 RNA 1
# RNA 2: B4 RNA 2 with U27C, C28U, A29U, A52C, C53U, C54U
# B35: target 2 MT 5'PFS UGU 3'PFS UCU (mixed)
# RNA 1: B4 RNA 1
# RNA 2: B4 RNA 2 with C28G, A29U, A52U, C54U
# B36: target 2 MT 5'PFS AUU 3'PFS UAC (mixed)
# RNA 1: B4 RNA 1
# RNA 2: B4 RNA 2 with U27A, C28U, A29U, A52U, C53A
# B37: target 2 MT 5'PFS CUU 3'PFS CUG (mixed)
# RNA 1: B4 RNA 1
# RNA 2: B4 RNA 2 with U27C, C28U, A29U, A52C, C53U, C54G
# B38: target 2 MT 5'PFS AUU 3'PFS CAG (mixed)
# RNA 1: B4 RNA 1
# RNA 2: B4 RNA 2 with U27A, C28U, A29U, A52C, C53A, C54G
# Biological target: T1, EsCas13d, nuclease-dead
# Assay: crRNA (strand 1, pre-loaded); Mg2+; 40 mM Tris-HCl pH 7.5, 150 mM NaCl, 6 mM MgCl2, 1 mM DTT, 0.1% Tween-20, 0.2 mg/ml BSA; 25 C; 10 min per concentration, then washed
# Conditions: tags: His6-TwinStrep-SUMO cleaved; N-terminal SNAP kept (SNAP-Surface 488); label: 3' end held by stalled T7 RNA polymerase
row,Binder,Kd [nM]
1,B1,8.69 ± 0.24
2,B2,39 ± 4
3,B3,17.5 ± 0.9
4,B4,13.6 ± 3.1
5,B5,9.5 ± 1.7
6,B6,6.4 ± 1
7,B7,3 ± 0.3
8,B8,4.2 ± 0.4
9,B9,3.81 ± 0.28
10,B10,2.68 ± 0.21
11,B11,4.4 ± 0.5
12,B12,14.3 ± 2.7
13,B13,4.8 ± 0.7
14,B14,7.1 ± 1.3
15,B15,8 ± 0.9
16,B16,37 ± 12
17,B17,20 ± 6
18,B18,14.7 ± 2.1
19,B19,15.8 ± 2.5

row,Binder,Kd [nM]
1,B20,6.4 ± 0.5
2,B21,26 ± 10
3,B22,3.8 ± 0.7
4,B23,10.8 ± 3.5
5,B24,6 ± 0.9
6,B25,5.6 ± 0.5
7,B26,3.7 ± 0.5
8,B27,20 ± 8
9,B28,7 ± 1.4
10,B29,7.4 ± 1.7
11,B30,5.7 ± 0.9
12,B31,2.83 ± 0.35
13,B32,1.92 ± 0.26
14,B33,5.2 ± 0.8
15,B34,4.7 ± 0.5
16,B35,17.7 ± 2.2
17,B36,11.9 ± 2.2
18,B37,4.2 ± 0.8
19,B38,6.9 ± 1.1
